Assay results as given in paper PMC7469494 (Autophagy, 2019).

Molecular target: the molecule itself
Assay: SAXS

B1: Vac8[40–578] (domain or fragment, S. cerevisiae, UniProt P39968 40-578, looked up)
chain: QLDFYSGGPLKALTTLVYSDNLNLQRSAALAFAEITEKYVRQVSREVLEPILILLQSQDPQIQVAACAALGNLAVNNENKLLIVEMGGLEPLINQMMGDNVEVQCNAVGCITNLATRDDNKHKIATSGALIPLTKLAKSKHIRVQRNATGALLNMTHSEENRKELVNAGAVPVLVSLLSSTDPDVQYYCTTALSNIAVDEANRKKLAQTEPRLVSKLVSLMDSPSSRVKCQATLALRNLASDTSYQLEIVRAGGLPHLVKLIQSDSIPLVLASVACIRNISIHPLNEGLIVDAGFLKPLVRLLDYKDSEEIQCHAVSTLRNLAASSEKNRKEFFESGAVEKCKELALDSPVSVQSEISACFAILALADVSKLDLLEANILDALIPMTFSQNQEVSGNAAAALANLCSRVNNYTKIIEAWDRPNEGIRGFLIRFLKSDYATFEHIALWTILQLLESHNDKVEDLVKNDDDIINGVRKMADVTFERLQRSGIDVKNPGSNNNPSSNDNNSNNNDTGSEHQPVEDASLELYNITQQILQFLH
Question: Does B1 bind?
Answer: binds
